How the values were obtained:
[1] = system: T1, Src peptide substrate KVEKIGEGTYGVVYK
T1 sequence: KVEKIGEGTYGVVYK

[2] = target: phospho-CrkL recombinant protein; assay: sandwich immunoassay, 96-well plate, 12 hours: Y244 capture, phospho-CrkL analyte, 4G10 and FITC anti-mouse detection
[3] = target: phospho-CrkL recombinant protein; assay: sandwich immunoassay, microfluidic chip, 1 hour: Y244 capture, phospho-CrkL analyte, 4G10-coated beads counted

Row | Substance | detection limit (kinase activity, beads bound/counted) [1] | Current limit of detection [2] [nM] | Current limit of detection [3] [pM]
1 | Src kinase | resulting in a detection limit of 100 fM | – | –
2 | rabbit anti-CrkL monoclonal antibodies (clone Y244, Novus Biologicals #NB110-56895) (antibody) | – | 1 | 100

Source: patent US20110312518A1
